Earlier results on two substances are cited in paper PMC3043165.

What is called IC50 is the concentration that inhibits the measured activity by half.

Series [1] deals with integrin αIIbβ3 (Homo sapiens) (UniProt P08514).
Series [2] concerns the target integrin αvβ5 (Homo sapiens) (UniProt P06756).

Bounds are passed on as bounds.

Sequence of integrin αvβ5 (Homo sapiens) (P06756 31-992, chain 1 of 2): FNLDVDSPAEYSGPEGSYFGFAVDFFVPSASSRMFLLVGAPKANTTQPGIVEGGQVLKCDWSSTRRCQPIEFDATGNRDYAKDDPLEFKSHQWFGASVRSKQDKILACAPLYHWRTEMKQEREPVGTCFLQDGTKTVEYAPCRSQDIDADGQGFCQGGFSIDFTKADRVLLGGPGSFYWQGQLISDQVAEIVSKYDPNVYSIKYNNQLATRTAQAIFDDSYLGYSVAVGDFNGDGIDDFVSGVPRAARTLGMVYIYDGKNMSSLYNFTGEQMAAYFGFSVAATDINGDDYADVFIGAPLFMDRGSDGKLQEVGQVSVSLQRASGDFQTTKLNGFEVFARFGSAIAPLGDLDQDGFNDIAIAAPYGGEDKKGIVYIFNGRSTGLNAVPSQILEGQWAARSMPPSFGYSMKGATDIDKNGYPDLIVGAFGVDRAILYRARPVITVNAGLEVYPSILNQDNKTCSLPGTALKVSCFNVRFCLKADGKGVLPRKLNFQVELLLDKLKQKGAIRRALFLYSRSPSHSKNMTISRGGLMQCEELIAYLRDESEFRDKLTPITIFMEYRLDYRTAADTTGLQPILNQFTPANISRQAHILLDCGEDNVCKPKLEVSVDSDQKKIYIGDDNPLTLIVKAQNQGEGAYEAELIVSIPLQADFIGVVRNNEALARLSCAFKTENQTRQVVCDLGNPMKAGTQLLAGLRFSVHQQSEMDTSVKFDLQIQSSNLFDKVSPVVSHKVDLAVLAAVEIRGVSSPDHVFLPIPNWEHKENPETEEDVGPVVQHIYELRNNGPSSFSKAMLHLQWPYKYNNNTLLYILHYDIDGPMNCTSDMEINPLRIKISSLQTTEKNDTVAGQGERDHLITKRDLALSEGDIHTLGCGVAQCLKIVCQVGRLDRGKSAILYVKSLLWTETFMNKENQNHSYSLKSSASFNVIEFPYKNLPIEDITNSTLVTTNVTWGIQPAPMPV
Sequence of integrin αvβ5 (Homo sapiens) (P18084 24-719, chain 2 of 2, further chain): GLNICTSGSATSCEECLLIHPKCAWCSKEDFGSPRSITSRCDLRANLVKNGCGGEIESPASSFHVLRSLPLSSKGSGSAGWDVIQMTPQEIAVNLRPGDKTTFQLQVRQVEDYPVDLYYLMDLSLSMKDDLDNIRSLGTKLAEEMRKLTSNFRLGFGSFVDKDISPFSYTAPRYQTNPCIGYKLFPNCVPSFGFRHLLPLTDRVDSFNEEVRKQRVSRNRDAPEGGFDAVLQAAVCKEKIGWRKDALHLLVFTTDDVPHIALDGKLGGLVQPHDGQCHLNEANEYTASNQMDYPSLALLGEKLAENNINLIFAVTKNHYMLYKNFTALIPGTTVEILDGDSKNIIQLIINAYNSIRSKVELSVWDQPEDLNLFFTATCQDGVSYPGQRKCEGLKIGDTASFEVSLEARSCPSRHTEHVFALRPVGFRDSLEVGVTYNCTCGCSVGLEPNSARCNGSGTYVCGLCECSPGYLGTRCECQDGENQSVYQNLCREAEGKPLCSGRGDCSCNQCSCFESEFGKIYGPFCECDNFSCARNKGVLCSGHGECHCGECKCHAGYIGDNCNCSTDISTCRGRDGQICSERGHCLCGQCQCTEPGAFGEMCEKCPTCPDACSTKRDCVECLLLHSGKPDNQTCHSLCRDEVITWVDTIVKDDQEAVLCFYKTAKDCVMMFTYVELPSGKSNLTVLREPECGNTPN

In the case of c(RGDyK), in series [1], the IC50 was 0.11 nM.

For the substance GRGDS peptide, the half-inhibitory concentration (IC50) in series [2] is over 5000 nM.
